Blank lines part the entries; values can stand above or below the binder they belong to.
How the values were obtained:
[1] = molecular target: LFY-DBD in the purified ASK1-UFO-LFY-DBD complex (Arabidopsis thaliana); assay: SEC-MALS
[2] = molecular target: T1, UFO in the purified ASK1-UFO-LFY-DBD complex (Arabidopsis thaliana, UniProt Q39090 1-442); assay: SEC-MALS
T1 sequence: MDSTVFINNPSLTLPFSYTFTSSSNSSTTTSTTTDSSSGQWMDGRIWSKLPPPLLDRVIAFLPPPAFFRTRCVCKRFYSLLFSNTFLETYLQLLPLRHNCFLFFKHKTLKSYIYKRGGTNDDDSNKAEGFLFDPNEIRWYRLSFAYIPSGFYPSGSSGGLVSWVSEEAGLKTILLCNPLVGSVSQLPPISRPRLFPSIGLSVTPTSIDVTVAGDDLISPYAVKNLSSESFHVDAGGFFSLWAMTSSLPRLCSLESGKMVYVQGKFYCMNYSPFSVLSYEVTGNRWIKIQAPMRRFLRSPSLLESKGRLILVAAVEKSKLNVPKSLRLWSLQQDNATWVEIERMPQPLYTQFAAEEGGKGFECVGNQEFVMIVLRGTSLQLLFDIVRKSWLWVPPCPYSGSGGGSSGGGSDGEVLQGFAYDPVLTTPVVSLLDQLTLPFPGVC

- stoichiometry N [1]: 1
B1: UFO in the purified ASK1-UFO-LFY-DBD complex (natural protein)
chain: T1 sequence

- stoichiometry N [2]: 1
B2: ASK1 in the purified ASK1-UFO-LFY-DBD complex (natural protein)
chain: MSAKKIVLKSSDGESFEVEEAVALESQTIAHMVEDDCVDNGVPLPNVTSKILAKVIEYCKRHVEAAASKAEAVEGAATSDDDLKAWDADFMKIDQATLFELILAANYLNIKNLLDLTCQTVADMIKGKTPEEIRTTFNIKNDFTPEEEEEVRRENQWAFE

Source: paper doi:10.1101/2022.06.14.495942 (bioRxiv, 2022)
